To fix the notation:
B1: Storkhead-box protein 2, residues 64 to 141; numbered along this chain, Q9P2F5 (parent)
chain: SPISQSQFIPLGEILCLAISAMNSARKPVTQEALMEHLTTCFPGVPTPSQEILRHTLNTLVRERKIYPTPDGYFIVTP

± gives the uncertainty stated by the source.

Variants of B1 are the subject of the data set. The data set can be described thus: abundance fitness (aPCA) (normalised: wild type 0, dead -1); higher = more abundant; growth selection in yeast, the domain comes from the species named. Particulars: Homo sapiens.
Take SPISQSQFIPLGEILCLMISAMNSARKPVTQEALMEHLTTCFPGVPTPSQEILRHTLNTLVRERKIYPTPDGYFIVTP [A18M]: the abundance fitness is -0.593 ± 0.17.
Regarding SPISQSQFIPLGEILCLAISAMNSARKPVTQEALMEHLTTCFPGVPTPSQEILRHTLNTLVRERNIYPTPDGYFIVTP [K65N], the abundance fitness was -0.493 ± 0.31.
Turning to SPISQSQFIPLGDILCLAISAMNSARKPVTQEALMEHLTTCFPGVPTPSQEILRHTLNTLVRERKIYPTPDGYFIVTP [E13D], the abundance fitness was -0.001 ± 0.11.
The same measure for SPISQSQFIPLGEILCLAISAMNSARKPVTQEALMEHLTTCFPGVPTPSQEILRHTLNTEVRERKIYPTPDGYFIVTP [L60E]: -0.835 ± 0.11.
The same measure for SPISQSQFIPLGEILCLAISAMNSARKPVTQEALMEHLTTCFPGVPTPSQEILRHTLNTRVRERKIYPTPDGYFIVTP [L60R]: -1.07 ± 0.079.
As for SPISQSQFIPLGEILCLAISAMNSARTPVTQEALMEHLTTCFPGVPTPSQEILRHTLNTLVRERKIYPTPDGYFIVTP [K27T], the abundance fitness came to 0.034 ± 0.043.
In the case of SPISQSQFIPLGEILCLAISAMNSARHPVTQEALMEHLTTCFPGVPTPSQEILRHTLNTLVRERKIYPTPDGYFIVTP [K27H], the abundance fitness is -0.119 ± 0.084.
For SPISQSQFIPLGEILCLAISAMNSKRKPVTQEALMEHLTTCFPGVPTPSQEILRHTLNTLVRERKIYPTPDGYFIVTP [A25K] the value was -0.007 ± 0.079; for SPISQSQFIPLGEILCLAISAMNSIRKPVTQEALMEHLTTCFPGVPTPSQEILRHTLNTLVRERKIYPTPDGYFIVTP [A25I], -0.053 ± 0.08.
As for SPISQSQFIPLGEILCLAISAMNSARKPVTKEALMEHLTTCFPGVPTPSQEILRHTLNTLVRERKIYPTPDGYFIVTP [Q31K], the abundance fitness is -0.141 ± 0.067.
For SPISQSQFIPLGEILCLAISAMNSARKPVTQEALMEHLTTCFPGVPTPSQRILRHTLNTLVRERKIYPTPDGYFIVTP [E51R] the value was -0.231 ± 0.049; for SPISQSQFIPLGEILCLAISAMNSARKPVTQEALMEHCTTCFPGVPTPSQEILRHTLNTLVRERKIYPTPDGYFIVTP [L38C], -0.316 ± 0.12; for SPISQSQFIPLGEILCLAISAMNSARKPVTQEALMEHLTTCFPGVPTPSQEILRHTLNTLVRERKIYPTPDAYFIVTP [G72A], -0.304 ± 0.049.
On to SPISQSQFIPLGEILCLAISAMNSARKPVTQEALMECLTTCFPGVPTPSQEILRHTLNTLVRERKIYPTPDGYFIVTP [H37C], for which the abundance fitness is -0.222 ± 0.086.
Turning to SPISQSQFIPLGEILCLAISAMNSARKPVTQEALMEFLTTCFPGVPTPSQEILRHTLNTLVRERKIYPTPDGYFIVTP [H37F], the abundance fitness was -0.285 ± 0.11.
Consider SPISQSQFIPLGEILALAISAMNSARKPVTQEALMEHLTTCFPGVPTPSQEILRHTLNTLVRERKIYPTPDGYFIVTP [C16A], for which the abundance fitness is -0.197 ± 0.069.
Turning to SPISQSQFIPLGEQLCLAISAMNSARKPVTQEALMEHLTTCFPGVPTPSQEILRHTLNTLVRERKIYPTPDGYFIVTP [I14Q], the abundance fitness was -0.118 ± 0.13.
With SPISQSQFIPLGEILCWAISAMNSARKPVTQEALMEHLTTCFPGVPTPSQEILRHTLNTLVRERKIYPTPDGYFIVTP [L17W], the abundance fitness was -0.129 ± 0.05.
The same measure for SPISQSQFCPLGEILCLAISAMNSARKPVTQEALMEHLTTCFPGVPTPSQEILRHTLNTLVRERKIYPTPDGYFIVTP [I9C]: 0.067 ± 0.059; for SPISQSQFIPLGEILCLAISAMNSARKPVTQEALMEHLTTCFPGVPTPSQEILRHTLNTLVRERKIYPPPDGYFIVTP [T69P]: -0.703 ± 0.087; for SPISQSQFIPLGEILCLAISAMNSARKPVTQEALMEHLTTCFPGVPTPSQEILRHTLNTLVRERKCYPTPDGYFIVTP [I66C]: 0.016 ± 0.059.
In the case of SPISQSQFIPLGEILCLALSAMNSARKPVTQEALMEHLTTCFPGVPTPSQEILRHTLNTLVRERKIYPTPDGYFIVTP [I19L], the abundance fitness is -0.23 ± 0.047.
Turning to SPISQSQFIPLGEILCLAWSAMNSARKPVTQEALMEHLTTCFPGVPTPSQEILRHTLNTLVRERKIYPTPDGYFIVTP [I19W], the abundance fitness is -0.825 ± 0.06.
For SPISQSQFIPLGEILCLAGSAMNSARKPVTQEALMEHLTTCFPGVPTPSQEILRHTLNTLVRERKIYPTPDGYFIVTP [I19G] the value was -1.07 ± 0.12; for SPISQSQFIPLGEILCLAISAMNSARKPVTQEALMEHLTSCFPGVPTPSQEILRHTLNTLVRERKIYPTPDGYFIVTP [T40S], -0.005 ± 0.047; for SPISQSQFIPLGEILCLAISAMNSARKPVTQEALMEHLTTCFPGVPTPSQEILRHTLNTLVRERKIYPTPDGYFIVTS [P78S], -0.038 ± 0.064.
Consider SPISQSQFIPLGEILCLAISAMNSARKPVTQEALMEHLTTCFPGVPTPSQEILRHTLNTLVYERKIYPTPDGYFIVTP [R62Y], for which the abundance fitness came to 0.076 ± 0.21.
SPISQSQFIPLGEILCLAISAMNSARKPVTQEALMEHLTTCFPGVPTPSQEILRHTLNTLVLERKIYPTPDGYFIVTP [R62L]: the abundance fitness is -0.037 ± 0.034.
With SPISQSQFIPLGEILCLAISAMNSARKPVTQEALMEHLTTCFPGVPTPSQEILRHTLNTLVCERKIYPTPDGYFIVTP [R62C], the abundance fitness is -0.047 ± 0.066.
As for SPISQSQFIPLGEILCLAISAMNSARKPVTQEALMEHLTTCFPGVPTPSQEILRHTLNTLVRMRKIYPTPDGYFIVTP [E63M], the abundance fitness was -0.051 ± 0.077.
The same measure for SPISQSQFIPLGEILCLAISAMNSARKPVTQEALMEHLTTCFPGVLTPSQEILRHTLNTLVRERKIYPTPDGYFIVTP [P46L]: -0.128 ± 0.035; for SPISQSQFIPLGEILCLAISAMNSARKPVAQEALMEHLTTCFPGVPTPSQEILRHTLNTLVRERKIYPTPDGYFIVTP [T30A]: -0.166 ± 0.037; for SPISQSQFIPLGEILCLAISAMNSARKPVDQEALMEHLTTCFPGVPTPSQEILRHTLNTLVRERKIYPTPDGYFIVTP [T30D]: -0.067 ± 0.07.
Take SPISQSQFIPLGEILCLAISAMNSARKPVGQEALMEHLTTCFPGVPTPSQEILRHTLNTLVRERKIYPTPDGYFIVTP [T30G]: the abundance fitness is -0.116 ± 0.035.
For SPISQSQFIPLGEILCLAISAMNSARKPVTQEALMEHLTTCFPGVPTPSQEILRHTLNTLVRERKIYATPDGYFIVTP [P68A] the value was 0.065 ± 0.049.
